Legend:
[1] = target: T1, human CD40 (hCD40) expressed on cells (human, UniProt P25942 21-277); assay: cell-based or functional assay
[2] = target: T1, human CD40 (hCD40) expressed on cells; assay: cell-based or functional assay; remark: listed apart in the source
[3] = target: T2, human CD40 extracellular domain expressed with a C-terminal myc-myc-hexahistidine tag (human); assay: ELISA blocking of 40 nM hCD40-mmH binding to 9His-hCD40L
T2 construct: also called hCD40-MMH; hCD40-mmH
Text: An ELISA-based blocking assay was developed to determine the ability of C40×CD40 bispecific antibodies to block the binding of the hCD40 monomer to plate-coated hCD40L. The recombinant human CD40-mmH protein (hCD40-MMH; REGN3094; SEQ ID NO: 53) used in the experiments comprises a portion of the human CD40 extracellular domain (amino acids P20-R193) fused to 2×Myc peptide and 6×histadine (SEQ ID NO: 1110) at the C-terminus of human CD40, and the human CD40L (accession #NM_000074.2) with amino acids E108-L261 of the extracellular domain with 9×His-2×(SGGG)-IGER at the N-terminus (9His-hCD40L) was commercially obtained from Biolegend.
In the blocking assay, 9His-hCD40L was passively absorbed at a concentration of 5 μg/mL in PBS on a 96-well microtiter plate overnight at 4° C. […] In a separate 96-well microtiter plate, a fixed amount of 40 nM hCD40-mmH was pre-mixed with one of the following antibodies, at concentrations ranging from 977 pM to 1 μM in PBS+0.5% BSA: (1) CD40×CD40 bispecific antibodies (REGN16431, REGN16432, REGN16634, and REGN16335); (2) parental CD40 mAbs (bivalent antibodies comprising 2 fragment antigen-binding [Fab] arms identical to one of anti-CD40 Fab of CD40×CD40 antibodies); (3) CD40×Irrelevant antibodies (bivalent antibodies that incorporate one Fab arm identical to one of anti-CD40 Fab of CD40×CD40 antibodies and another Fab arm specific to an irrelevant antigen); and (4) human IgG4 with Fc mutation isotype control antibodies (REGN7540 and REGN4513). The fixed concentration of hCD40-mmH was selected to be near the concentration (EC₅₀ value) that generated 50% of the maximal binding to the plate-adhered 9His-hCD40L. After one-hour incubation, the antibody-antigen complexes were transferred to the microtiter plate coated with 9His-hCD40L. After one hour incubation at room temperature, the plates were washed, and plate-bound hCD40-mmH protein was detected with horseradish peroxidase (HRP) conjugated goat anti-c-Myc antibody. The plates were then developed using TMB substrate solution (BD Biosciences) according to the manufacturer's recommended procedure and the absorbance at 450 nm (OD₄₅₀) was measured on a SpectraMax i3×plate reader.

[4] = target: T1, human CD40 (hCD40) expressed on cells; assay: cell-based or functional assay; remark: listed apart in the source
[5] = target: T3, Macaca fascicularis CD40 (mfCD40) expressed on HEK293/D9/mfCD40 cells (Macaca fascicularis, UniProt G7PG38 21-278); assay: flow cytometry, HEK293/D9/mfCD40 cells
T3 construct: whole, on cells; also called monkey CD40
Method: (§1) Cells were washed with 2% FBS (w/v) in 1×PBS (flow cytometry staining buffer) by centrifugation with benchtop Centrifuge 5810R (Eppendorf®, Hamburg, Germany). Cells were incubated for 30 minutes at 4° C. with serial dilutions of following antibodies ranging from 1.7 pM to 100 nM in flow cytometry staining buffer (1) anti-CD40×CD40 bispecific antibodies, or (2) parental anti-CD40 antibodies (bivalent antibodies comprising 2 fragment antigen-binding [Fab] arms identical to one of the two anti-CD40 Fab of bispecific anti-CD40×CD40 antibodies), or (3) anti-CD40×Irrelevant antibodies (bivalent antibodies that incorporate one Fab arm identical to one of anti-CD40 Fab of anti-CD40×CD40 antibodies and another Fab arm specific to an irrelevant antigen, i.e. birch pollen main allergen Bet v1), or (4) human IgG4 isotype control antibodies with Fc mutation. After washing, cell bound antibodies were detected with 2.5 μg/ml Allophycocyanin (APC)-conjugated goat anti-human IgG antibody specific for the Fcγ fragment (Jackson Immunoresearch, West Grove, PA) for 30 minutes at 4° C. Cells were washed and subsequently fixed with 50% solution of Cytofix™ Fixation Buffer (BD, Franklin Lakes, NJ) in flow cytometry staining buffer for 20 minutes at room temperature. Cells were washed and resuspended in flow cytometry staining buffer and stored at 4° C. for downstream flow cytometry analysis.
(§2) Acquisition of fluorescence signals were recorded on the ZE5 Cell Analyzer (Bio-Rad, Hercules, CA) according to the manufacturer's recommended procedure and flow cytometry data analysis was performed using the open-source R packages flowCore, flowStats, flowDensity, ggCyto, and flowAI. Multiplexed samples were deconvoluted and individual cell populations were identified based on their unique CellTrace™ fluorescence signature. APC Median Fluorescence intensity (MFI) was recorded to indicate the binding intensity of each antibody over a range of concentrations. Antibodies with MFI greater than 1500 at the highest tested concentration (100 nM) were classified as specific binders. In addition, direct binding signals (APC MFI) were analyzed as a function of the antibody concentration and data were fitted with a sigmoidal (four-parameter logistic) dose-response model using GraphPad Prism™ software.

[6] = target: T1, human CD40 (hCD40) expressed on cells; assay: cell-based or functional assay; remark: listed apart in the source
[7] = target: T1, human CD40 (hCD40) expressed on cells; assay: cell-based or functional assay; remark: listed apart in the source
[8] = target: T1, human CD40 (hCD40) expressed on cells; assay: flow cytometry, HEK293/D9/hCD40 cells
Method: as §1, §2

[9] = target: T1, human CD40 (hCD40) expressed on cells; assay: cell-based or functional assay; remark: listed apart in the source
[10] = target: T1, human CD40 (hCD40) expressed on cells; assay: cell-based or functional assay; remark: listed apart in the source
[11] = target: T1, human CD40 (hCD40) expressed on cells; assay: cell-based or functional assay; remark: listed apart in the source
[12] = target: T1, human CD40 (hCD40) expressed on cells; assay: flow cytometry, Ramos 2G6.4C10 cells
Method: as §1, §2

[13] = target: T1, human CD40 (hCD40) expressed on cells; assay: cell-based or functional assay; remark: listed apart in the source

T1 sequence (P25942 21-277): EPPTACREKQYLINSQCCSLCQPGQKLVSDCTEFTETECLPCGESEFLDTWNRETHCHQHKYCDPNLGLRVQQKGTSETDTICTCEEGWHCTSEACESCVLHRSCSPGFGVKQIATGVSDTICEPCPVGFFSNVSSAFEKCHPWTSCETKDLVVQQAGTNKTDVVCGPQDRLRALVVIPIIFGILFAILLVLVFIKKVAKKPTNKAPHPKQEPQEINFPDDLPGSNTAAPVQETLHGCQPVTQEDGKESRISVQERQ
T2 sequence (chain, as listed by the source limits assumed): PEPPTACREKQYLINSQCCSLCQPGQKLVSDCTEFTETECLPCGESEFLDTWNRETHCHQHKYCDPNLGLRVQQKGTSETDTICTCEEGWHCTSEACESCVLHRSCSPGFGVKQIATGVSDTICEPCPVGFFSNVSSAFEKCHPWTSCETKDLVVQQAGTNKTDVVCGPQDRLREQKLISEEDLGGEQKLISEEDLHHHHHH

B1: REGN16334 (bispecific antibody, human IgG4 S228P, kappa)
heavy 1: QLQLQESGPGLVRPSETLSLTCSVSGASMNTNNYYWGWIRQPPGKGLEWIGSGYYNGNTYYNPSLKSRVTISVDTSKNQFSLKLNSVTAADTAVYYCARQTPPRIIGSPNIWGQGTMVTVSSASTKGPSVFPLAPCSRSTSESTAALGCLVKDYFPEPVTVSWNSGALTSGVHTFPAVLQSSGLYSLSSVVTVPSSSLGTKTYTCNVDHKPSNTKVDKRVESKYGPPCPPCPAPGGGGPSVFLFPPKPKDTLMISRTPEVTCVVVDVSQEDPEVQFNWYVDGVEVHNAKTKPREEQFNSTYRVVSVLTVLHQDWLNGKEYKCKVSNKGLPSSIEKTISKAKGQPREPQVYTLPPSQEEMTKNQVSLTCLVKGFYPSDIAVEWESNGQPENNYKTTPPVLDSDGSFFLYSRLTVDKSRWQEGNVFSCSVMHEALHNHYTQKSLSLSLGK
heavy 2: EVQLVESGGGLVQPGGSLRLSCAASGFTFGSYGMAWVRQAPGKGLEWVSAISGSGDYTNYADSVKRRFTISRDNSKNTLYLQMSSLRAEDTAVYYCAKEKTGTTGYLYSGMDVWGQGTTVTVSSASTKGPSVFPLAPCSRSTSESTAALGCLVKDYFPEPVTVSWNSGALTSGVHTFPAVLQSSGLYSLSSVVTVPSSSLGTKTYTCNVDHKPSNTKVDKRVESKYGPPCPPCPAPGGGGPSVFLFPPKPKDTLMISRTPEVTCVVVDVSQEDPEVQFNWYVDGVEVHNAKTKPREEQFNSTYRVVSVLTVLHQDWLNGKEYKCKVSNKGLPSSIEKTISKAKGQPREPQVYTLPPSQEEMTKNQVSLTCLVKGFYPSDIAVEWESNGQPENNYKTTPPVLDSDGSFFLYSRLTVDKSRWQEGNVFSCSVMHEALHNRFTQKSLSLSPGK
light: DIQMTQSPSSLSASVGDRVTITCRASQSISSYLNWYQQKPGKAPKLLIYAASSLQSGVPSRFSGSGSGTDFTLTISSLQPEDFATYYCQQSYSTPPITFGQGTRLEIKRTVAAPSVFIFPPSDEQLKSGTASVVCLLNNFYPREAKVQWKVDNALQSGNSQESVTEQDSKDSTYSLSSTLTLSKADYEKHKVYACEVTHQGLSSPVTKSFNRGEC
notes: D1 arm from 21519P2, D2 arm from 21520P2, common light chain; also called CD40xCD40 (21519 x 21520)
- % max blockade relative to no mAb, IL-6, assay #2 donor 1 [1]: 88.9%
- % max blockade relative to no mAb, IL-6, assay #2 donor 2 [1]: 89.2%
- % max blockade relative to no mAb, TNFa, assay #2 donor 1 [2]: 62.8%
- % max blockade relative to no mAb, TNFa, assay #2 donor 2 [2]: 51.1%
- % Blocking at 1 uM mAb [3]: 98%
- IC50 [3]: 32 nM
- % max blockade relative to no mAb, TNFa, donor 1 [4]: 44%
- % max blockade relative to no mAb, TNFa, donor 2 [4]: 63.5%
- % max blockade relative to no mAb, TNFa, donor 3 [4]: 68.5%
- EC50 [5]: 9.1 nM
- MFI at 100 nM [5]: 41700 MFI
- % max blockade relative to no mAb, IL-10, assay #2 donor 1 [6]: 87.7%
- % max blockade relative to no mAb, IL-10, assay #2 donor 2 [6]: 89.9%
- IC50, 900 pM hCD40L, Raji NFkB-luc [7]: 5.76e-11 M
- Max % activation, no ligand, Raji NFkB-luc [7]: 13%
- Max % inhibition, 900 pM hCD40L, Raji NFkB-luc [7]: 113%
- EC50 [8]: 2 nM
- MFI at 100 nM [8]: 29000 MFI
- % max blockade relative to no mAb, IL-6, donor 1 [9]: 84.5%
- % max blockade relative to no mAb, IL-6, donor 2 [9]: 92%
- % max blockade relative to no mAb, IL-6, donor 3 [9]: 92%
- IC50, 500 pM hCD40L, Ramos NFkB-luc [10]: 6.93e-11 M
- Max % activation, no ligand, Ramos NFkB-luc [10]: 6%
- Max % inhibition, 500 pM hCD40L, Ramos NFkB-luc [10]: 91%
- IC50, 10 nM hCD40L, THP-1 NFkB-luc [11]: 0.553 nM
- Max % activation, no ligand, THP-1 NFkB-luc [11]: 1%
- Max % inhibition, 10 nM hCD40L, THP-1 NFkB-luc [11]: 98%
- EC50 [12]: 2 nM
- MFI at 100 nM [12]: 3760 MFI
- % max blockade relative to no mAb, IL-10, donor 1 [13]: 74.2%
- % max blockade relative to no mAb, IL-10, donor 2 [13]: 91.4%
- % max blockade relative to no mAb, IL-10, donor 3 [13]: 92.4%

B2: REGN16335 (bispecific antibody, human IgG4 S228P, kappa)
heavy 1: EVQLVESGGGLVQPGGSLRLSCAASGFTFSSYAMNWVRQAPGKGLEWVSIISGTIGKTYYADSVKGRFTISRDNSKNTLYLQMNSLRGEDTAVYYCAKDTERDITGSPFDYWGQGTLVTVSSASTKGPSVFPLAPCSRSTSESTAALGCLVKDYFPEPVTVSWNSGALTSGVHTFPAVLQSSGLYSLSSVVTVPSSSLGTKTYTCNVDHKPSNTKVDKRVESKYGPPCPPCPAPGGGGPSVFLFPPKPKDTLMISRTPEVTCVVVDVSQEDPEVQFNWYVDGVEVHNAKTKPREEQFNSTYRVVSVLTVLHQDWLNGKEYKCKVSNKGLPSSIEKTISKAKGQPREPQVYTLPPSQEEMTKNQVSLTCLVKGFYPSDIAVEWESNGQPENNYKTTPPVLDSDGSFFLYSRLTVDKSRWQEGNVFSCSVMHEALHNHYTQKSLSLSLGK
heavy 2: B1 heavy 2
light: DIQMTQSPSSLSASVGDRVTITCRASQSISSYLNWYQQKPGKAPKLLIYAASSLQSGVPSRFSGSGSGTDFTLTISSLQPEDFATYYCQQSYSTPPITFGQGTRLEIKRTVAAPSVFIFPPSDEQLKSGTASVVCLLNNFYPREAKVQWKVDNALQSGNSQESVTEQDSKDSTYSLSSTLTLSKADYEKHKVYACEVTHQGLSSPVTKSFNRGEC
notes: D1 arm from 30027P2, D2 arm from 21520P2, common light chain; also called CD40xCD40 (30027 x 21520)
- % max blockade relative to no mAb, IL-6, assay #2 donor 1 [1]: 88.4%
- % max blockade relative to no mAb, IL-6, assay #2 donor 2 [1]: 87%
- % max blockade relative to no mAb, TNFa, assay #2 donor 1 [2]: 62.4%
- % max blockade relative to no mAb, TNFa, assay #2 donor 2 [2]: 52.5%
- % Blocking at 1 uM mAb [3]: 96%
- IC50 [3]: 32 nM
- % max blockade relative to no mAb, TNFa, donor 1 [4]: 45%
- % max blockade relative to no mAb, TNFa, donor 2 [4]: 64.7%
- % max blockade relative to no mAb, TNFa, donor 3 [4]: 61.6%
- EC50 [5]: 2.4 nM
- MFI at 100 nM [5]: 47300 MFI
- % max blockade relative to no mAb, IL-10, assay #2 donor 1 [6]: 88.5%
- % max blockade relative to no mAb, IL-10, assay #2 donor 2 [6]: 87.8%
- IC50, 900 pM hCD40L, Raji NFkB-luc [7]: 4.94e-11 M
- Max % activation, no ligand, Raji NFkB-luc [7]: 9%
- Max % inhibition, 900 pM hCD40L, Raji NFkB-luc [7]: 102%
- EC50 [8]: 1.6 nM
- MFI at 100 nM [8]: 28900 MFI
- % max blockade relative to no mAb, IL-6, donor 1 [9]: 83.2%
- % max blockade relative to no mAb, IL-6, donor 2 [9]: 91.4%
- % max blockade relative to no mAb, IL-6, donor 3 [9]: 91.4%
- IC50, 500 pM hCD40L, Ramos NFkB-luc [10]: 3.86e-11 M
- Max % activation, no ligand, Ramos NFkB-luc [10]: 5%
- Max % inhibition, 500 pM hCD40L, Ramos NFkB-luc [10]: 93%
- IC50, 10 nM hCD40L, THP-1 NFkB-luc [11]: 0.221 nM
- Max % activation, no ligand, THP-1 NFkB-luc [11]: 3%
- Max % inhibition, 10 nM hCD40L, THP-1 NFkB-luc [11]: 98%
- EC50 [12]: 1 nM
- MFI at 100 nM [12]: 3750 MFI
- % max blockade relative to no mAb, IL-10, donor 1 [13]: 78.5%
- % max blockade relative to no mAb, IL-10, donor 2 [13]: 93.6%
- % max blockade relative to no mAb, IL-10, donor 3 [13]: 89.8%

From patent US20250277048A1 (Regeneron, published 2025)
